Estimated V1a EC50 (calcium flux) and V1a Highest agonist effect (% of AVP) data for nine molecules are collected here from patent US20230248800A1.

B1: Mpa-Tyr-Phe-Hgn-Asn-Cys-Pro-Lys(X)a-Gly-NH2; (X)a = (Gly)9 [SEQ ID NO. 16] (peptide)
peptide: XFXNCPXG
modifications: Mpa at position 1, disulfide bond between Mpa and Cys; Hgn at position 4; (Gly)9 on the side chain of Lys 8; C-terminal amide
B2: Mpa-Tyr-Phe-Hgn-Asn-Cys-Pro-Lys(X)-Gly-NH2; X = Gly [SEQ ID NO. 8] (peptide)
peptide: XFXNCPXG
modifications: Mpa at position 1, disulfide bond between Mpa and Cys; Hgn at position 4; Gly on the side chain of Lys 8; C-terminal amide
B3: Mpa-Tyr-Phe-Hgn-Asn-Cys-Pro-Lys(X)a-Gly-NH2; (X)a = (Gly)5 [SEQ ID NO. 12] (peptide)
peptide: XFXNCPXG
modifications: Mpa at position 1, disulfide bond between Mpa and Cys; Hgn at position 4; (Gly)5 on the side chain of Lys 8; C-terminal amide
B4: Mpa-Tyr-Phe-Hgn-Asn-Cys-Pro-Lys(X)a-Gly-NH2; (X)a = (Gly)2 [SEQ ID NO. 9] (peptide)
peptide: XFXNCPXG
modifications: Mpa at position 1, disulfide bond between Mpa and Cys; Hgn at position 4; (Gly)2 on the side chain of Lys 8; C-terminal amide
B5: Mpa-Tyr-Phe-Hgn-Asn-Cys-Pro-Lys(X)a-Gly-NH2; (X)a = (Gly)7 [SEQ ID NO. 14] (peptide)
peptide: XFXNCPXG
modifications: Mpa at position 1, disulfide bond between Mpa and Cys; Hgn at position 4; (Gly)7 on the side chain of Lys 8; C-terminal amide
B6: Mpa-Tyr-Phe-Hgn-Asn-Cys-Pro-Lys(X)a-Gly-NH2; (X)a = (Gly)4 [SEQ ID NO. 11] (peptide)
peptide: XFXNCPXG
modifications: Mpa at position 1, disulfide bond between Mpa and Cys; Hgn at position 4; (Gly)4 on the side chain of Lys 8; C-terminal amide
B7: Mpa-Tyr-Phe-Hgn-Asn-Cys-Pro-Lys(X)a-Gly-NH2; (X)a = (Gly)8 [SEQ ID NO. 15] (peptide)
peptide: XFXNCPXG
modifications: Mpa at position 1, disulfide bond between Mpa and Cys; Hgn at position 4; (Gly)8 on the side chain of Lys 8; C-terminal amide
B8: Mpa-Tyr-Phe-Hgn-Asn-Cys-Pro-Lys(X)a-Gly-NH2; (X)a = (Gly)6 [SEQ ID NO. 13] (peptide)
peptide: XFXNCPXG
modifications: Mpa at position 1, disulfide bond between Mpa and Cys; Hgn at position 4; (Gly)6 on the side chain of Lys 8; C-terminal amide
B9: Mpa-Tyr-Phe-Hgn-Asn-Cys-Pro-Lys(X)a-Gly-NH2; (X)a = (Gly)3 [SEQ ID NO. 10] (peptide)
peptide: XFXNCPXG
modifications: Mpa at position 1, disulfide bond between Mpa and Cys; Hgn at position 4; (Gly)3 on the side chain of Lys 8; C-terminal amide

human V1a receptor (human), sequence (P37288 whole entry): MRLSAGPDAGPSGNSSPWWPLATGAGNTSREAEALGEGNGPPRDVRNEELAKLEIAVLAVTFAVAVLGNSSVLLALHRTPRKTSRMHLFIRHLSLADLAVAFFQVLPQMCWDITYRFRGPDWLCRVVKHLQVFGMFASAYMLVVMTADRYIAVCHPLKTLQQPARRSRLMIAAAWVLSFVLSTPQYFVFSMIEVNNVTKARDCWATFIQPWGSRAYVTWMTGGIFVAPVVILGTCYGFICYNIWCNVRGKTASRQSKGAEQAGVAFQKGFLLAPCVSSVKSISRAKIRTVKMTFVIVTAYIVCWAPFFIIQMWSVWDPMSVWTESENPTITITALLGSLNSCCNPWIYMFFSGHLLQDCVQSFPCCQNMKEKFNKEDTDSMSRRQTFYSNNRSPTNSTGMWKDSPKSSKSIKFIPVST

The experiment concerns the target human V1a receptor (human) (UniProt P37288). As to the kind of experiment: cell-based or functional assay.
Take B1: the Estimated V1a EC50 (calcium flux) was 105 nM and the V1a Highest agonist effect (% of AVP) is 28.1 % of AVP.

Take B2: the Estimated V1a EC50 (calcium flux) was 25.3 nM and the V1a Highest agonist effect (% of AVP) was 40.3 % of AVP.

B3: the Estimated V1a EC50 (calcium flux) is 50.1 nM and the V1a Highest agonist effect (% of AVP) was 29.6 % of AVP.

B4: the Estimated V1a EC50 (calcium flux) is 38.2 nM and the V1a Highest agonist effect (% of AVP) was 37 % of AVP.

B5: the Estimated V1a EC50 (calcium flux) was 30.9 nM and the V1a Highest agonist effect (% of AVP) was 26.1 % of AVP.

B6: the Estimated V1a EC50 (calcium flux) was 161 nM and the V1a Highest agonist effect (% of AVP) was 33.6 % of AVP.

As to B7, the Estimated V1a EC50 (calcium flux) was 226 nM and the V1a Highest agonist effect (% of AVP) is 24.8 % of AVP.

With B8, the Estimated V1a EC50 (calcium flux) is 45.9 nM and the V1a Highest agonist effect (% of AVP) is 28.2 % of AVP.

Take B9: the Estimated V1a EC50 (calcium flux) is 53.5 nM and the V1a Highest agonist effect (% of AVP) is 32.9 % of AVP.
